Target: MARV NPcore (VP35 NPBP removed by TEV) (Marburg virus (Mt. Elgon-Musoke strain), UniProt P27588 1-430)
Sequence (P27588 1-430): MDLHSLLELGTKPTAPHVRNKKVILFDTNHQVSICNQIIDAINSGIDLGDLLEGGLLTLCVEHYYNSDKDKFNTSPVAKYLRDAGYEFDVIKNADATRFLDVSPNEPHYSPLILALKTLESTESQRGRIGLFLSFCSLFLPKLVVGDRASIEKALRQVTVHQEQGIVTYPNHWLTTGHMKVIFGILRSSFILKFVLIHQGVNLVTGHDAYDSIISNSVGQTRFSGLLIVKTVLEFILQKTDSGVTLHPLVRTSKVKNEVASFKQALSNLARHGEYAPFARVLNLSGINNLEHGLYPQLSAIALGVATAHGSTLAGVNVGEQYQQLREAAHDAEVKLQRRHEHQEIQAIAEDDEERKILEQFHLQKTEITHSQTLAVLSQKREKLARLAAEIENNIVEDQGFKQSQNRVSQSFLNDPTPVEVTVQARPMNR

AGACACACAAAAACAAGA (ssRNA) [18 nt ssRNA, first 18 bases of the MARV genome]
binding result: binds

— paper PMC11603049
